{"source": "paper PMC9772228", "about": "“Structure of a RecT/Redβ family recombinase in complex with a duplex intermediate of DNA annealing”", "molecules": {"B1": {"name": "80-/80+ annealed duplex (sequential) (dsDNA)", "DNA 1": "CATATTTAAAACATGTTGAGCTACAGCACCAGATTCAGCAATTAAGCTCTAAGCCATCCGCAAAAATGACCTCTTATCAA", "DNA 2": "TTGATAAGAGGTCATTTTTGCGGATGGCTTAGAGCTTAATTGCTGAATCTGGTGCTGTAGCTCAACATGTTTTAAATATG"}, "B2": {"name": "80+ (ssDNA)", "DNA": "B1 DNA 2"}, "B3": {"name": "80- (ssDNA)", "DNA": "B1 DNA 1"}, "B4": {"name": "Cy5-50mer (ssDNA)", "DNA": "CCATCCGCAAAAATCGAGCTATGCAGGGCGATTCTGCTCTAAGCCATCCG"}, "B5": {"name": "50-mer duplex intermediate (sequential addition) (dsDNA)", "DNA 1": "GCGGATGGCTTAGAGCAGAATCGCCCTGCATAGCTCGATTTTTGCGGATG", "DNA 2": "B4 DNA"}, "B6": {"name": "75+ (ssDNA)", "DNA": "TTGATAAGAGGTCATTTTTGCGGATGGCTTAGAGCTTAATTGCTGAATCTGGTGCTGTAGCTCAACATGTTTTAA"}, "B7": {"name": "75- (ssDNA)", "DNA": "TTAAAACATGTTGAGCTACAGCACCAGATTCAGCAATTAAGCTCTAAGCCATCCGCAAAAATGACCTCTTATCAA"}, "B8": {"name": "75-/75+ annealed duplex (sequential) (dsDNA)", "DNA 1": "B7 DNA", "DNA 2": "B6 DNA"}, "B9": {"name": "83-/83+ annealed duplex (sequential) (dsDNA)", "DNA 1": "TTGCATATTTAAAACATGTTGAGCTACAGCACCAGATTCAGCAATTAAGCTCTAAGCCATCCGCAAAAATGACCTCTTATCAA", "DNA 2": "TTGATAAGAGGTCATTTTTGCGGATGGCTTAGAGCTTAATTGCTGAATCTGGTGCTGTAGCTCAACATGTTTTAAATATGCAA"}, "B10": {"name": "83+ (ssDNA)", "DNA": "B9 DNA 2"}, "B11": {"name": "83- (ssDNA)", "DNA": "B9 DNA 1"}, "B12": {"name": "Cy3-50mer (ssDNA)", "DNA": "B5 DNA 1"}}, "key": {"[1]": {"biological_target": "LiRecT (RecT/Redβ family recombinase from the A118 prophage of Listeria innocua) (Listeria innocua)", "experiment": "native MS; free LiRecT without DNA at 30 µM, 100 mM ammonium acetate pH 7"}, "LiRecT WT [2]": {"biological_target": "T1, LiRecT WT (Listeria innocua CLIP 11262, UniProt Q92FL9 1-271)", "T1 sequence": "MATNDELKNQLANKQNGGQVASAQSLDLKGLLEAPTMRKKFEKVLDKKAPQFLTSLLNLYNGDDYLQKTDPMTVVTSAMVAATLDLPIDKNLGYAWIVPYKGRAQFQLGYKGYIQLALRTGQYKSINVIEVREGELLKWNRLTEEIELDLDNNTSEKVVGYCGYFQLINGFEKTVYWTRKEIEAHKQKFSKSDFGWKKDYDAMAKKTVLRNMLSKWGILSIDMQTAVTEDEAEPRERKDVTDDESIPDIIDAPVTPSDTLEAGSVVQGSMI", "experiment": "native MS; 17 LiRecT:1:1; EMSA: PBS pH 7.4 (or KH2PO4/10 mM MgCl2 pH 6.0), 3.6 or 5 uM protein, 25 uM nt DNA, 37 C 15 min per strand, 0.8% agarose 1x TBE; cryo-EM: 20 mM KH2PO4 (Results: 10 mM), 10 mM MgCl2 pH 6.0, 37 C; native MS: 100 mM ammonium acetate pH 7, 37 C", "conditions": "protein: recombinant; tags: N-terminal 6His, thrombin-cleaved in main prep; chain copies: 10; blunt"}, "LiRecT WT [3]": {"biological_target": "T1, LiRecT WT", "experiment": "native MS; 17 LiRecT:2 DNA among species; EMSA: PBS pH 7.4 (or KH2PO4/10 mM MgCl2 pH 6.0), 3.6 or 5 uM protein, 25 uM nt DNA, 37 C 15 min per strand, 0.8% agarose 1x TBE; cryo-EM: 20 mM KH2PO4 (Results: 10 mM), 10 mM MgCl2 pH 6.0, 37 C; native MS: 100 mM ammonium acetate pH 7, 37 C", "conditions": "protein: recombinant; tags: N-terminal 6His, thrombin-cleaved in main prep; chain copies: 10; single strand"}, "LiRecT WT [4]": {"biological_target": "T1, LiRecT WT", "experiment": "EMSA; EMSA: PBS pH 7.4 (or KH2PO4/10 mM MgCl2 pH 6.0), 3.6 or 5 uM protein, 25 uM nt DNA, 37 C 15 min per strand, 0.8% agarose 1x TBE; cryo-EM: 20 mM KH2PO4 (Results: 10 mM), 10 mM MgCl2 pH 6.0, 37 C; native MS: 100 mM ammonium acetate pH 7, 37 C", "conditions": "protein: recombinant, tags: N-terminal 6His, thrombin-cleaved in main prep, chain copies: 10, single strand"}, "λ-Redβ": {"biological_target": "T2, λ-Redβ (bacteriophage lambda, UniProt P03698 1-261)", "T2 sequence": "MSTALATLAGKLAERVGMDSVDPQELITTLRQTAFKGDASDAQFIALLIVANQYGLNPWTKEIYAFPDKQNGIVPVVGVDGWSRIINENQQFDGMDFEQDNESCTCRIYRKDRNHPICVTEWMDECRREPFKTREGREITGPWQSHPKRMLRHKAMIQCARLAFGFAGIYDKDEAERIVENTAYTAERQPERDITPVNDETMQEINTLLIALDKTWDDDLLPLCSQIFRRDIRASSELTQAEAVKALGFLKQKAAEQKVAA", "experiment": "EMSA; sequential addition; EMSA: PBS pH 7.4 (or KH2PO4/10 mM MgCl2 pH 6.0), 3.6 or 5 uM protein, 25 uM nt DNA, 37 C 15 min per strand, 0.8% agarose 1x TBE; cryo-EM: 20 mM KH2PO4 (Results: 10 mM), 10 mM MgCl2 pH 6.0, 37 C; native MS: 100 mM ammonium acetate pH 7, 37 C", "conditions": "protein: recombinant; label: 5'-Cy3;5'-Cy5; 49 bp, 1 nt 5' overhang at each end"}, "LiRecT WT [5]": {"biological_target": "T1, LiRecT WT", "experiment": "EMSA; sequential addition; EMSA: PBS pH 7.4 (or KH2PO4/10 mM MgCl2 pH 6.0), 3.6 or 5 uM protein, 25 uM nt DNA, 37 C 15 min per strand, 0.8% agarose 1x TBE; cryo-EM: 20 mM KH2PO4 (Results: 10 mM), 10 mM MgCl2 pH 6.0, 37 C; native MS: 100 mM ammonium acetate pH 7, 37 C", "conditions": "protein: recombinant; tags: N-terminal 6His, thrombin-cleaved in main prep; chain copies: 10; label: 5'-Cy3;5'-Cy5; 49 bp, 1 nt 5' overhang at each end"}, "LiRecT WT [6]": {"biological_target": "T1, LiRecT WT", "experiment": "native MS; 15 LiRecT:2 DNA among species; EMSA: PBS pH 7.4 (or KH2PO4/10 mM MgCl2 pH 6.0), 3.6 or 5 uM protein, 25 uM nt DNA, 37 C 15 min per strand, 0.8% agarose 1x TBE; cryo-EM: 20 mM KH2PO4 (Results: 10 mM), 10 mM MgCl2 pH 6.0, 37 C; native MS: 100 mM ammonium acetate pH 7, 37 C", "conditions": "protein: recombinant; tags: N-terminal 6His, thrombin-cleaved in main prep; chain copies: 10; single strand"}, "LiRecT WT [7]": {"biological_target": "T1, LiRecT WT", "experiment": "native MS; 16 LiRecT:1 DNA among species; EMSA: PBS pH 7.4 (or KH2PO4/10 mM MgCl2 pH 6.0), 3.6 or 5 uM protein, 25 uM nt DNA, 37 C 15 min per strand, 0.8% agarose 1x TBE; cryo-EM: 20 mM KH2PO4 (Results: 10 mM), 10 mM MgCl2 pH 6.0, 37 C; native MS: 100 mM ammonium acetate pH 7, 37 C", "conditions": "protein: recombinant; tags: N-terminal 6His, thrombin-cleaved in main prep; chain copies: 10; single strand"}, "LiRecT WT [8]": {"biological_target": "T1, LiRecT WT", "experiment": "native MS; 1-2 fewer subunits than 83-mer complex; EMSA: PBS pH 7.4 (or KH2PO4/10 mM MgCl2 pH 6.0), 3.6 or 5 uM protein, 25 uM nt DNA, 37 C 15 min per strand, 0.8% agarose 1x TBE; cryo-EM: 20 mM KH2PO4 (Results: 10 mM), 10 mM MgCl2 pH 6.0, 37 C; native MS: 100 mM ammonium acetate pH 7, 37 C", "conditions": "protein: recombinant; tags: N-terminal 6His, thrombin-cleaved in main prep; chain copies: 10; blunt"}, "LiRecT WT [9]": {"biological_target": "T1, LiRecT WT", "experiment": "native MS; 17-18 LiRecT:1:1; EMSA: PBS pH 7.4 (or KH2PO4/10 mM MgCl2 pH 6.0), 3.6 or 5 uM protein, 25 uM nt DNA, 37 C 15 min per strand, 0.8% agarose 1x TBE; cryo-EM: 20 mM KH2PO4 (Results: 10 mM), 10 mM MgCl2 pH 6.0, 37 C; native MS: 100 mM ammonium acetate pH 7, 37 C", "conditions": "protein: recombinant; tags: N-terminal 6His, thrombin-cleaved in main prep; chain copies: 10; blunt"}, "LiRecT WT [10]": {"biological_target": "T1, LiRecT WT", "experiment": "cryo-EM; 10 mM MgCl2, pH 6.0; EMSA: PBS pH 7.4 (or KH2PO4/10 mM MgCl2 pH 6.0), 3.6 or 5 uM protein, 25 uM nt DNA, 37 C 15 min per strand, 0.8% agarose 1x TBE; cryo-EM: 20 mM KH2PO4 (Results: 10 mM), 10 mM MgCl2 pH 6.0, 37 C; native MS: 100 mM ammonium acetate pH 7, 37 C", "conditions": "protein: recombinant; tags: N-terminal 6His, thrombin-cleaved in main prep; chain copies: 10; single strand"}}, "data": [{"molecule": "LiRecT (RecT/Redβ family recombinase from the A118 prophage of Listeria innocua) (natural protein)", "values": [{"measurement": "stoichiometry N", "setting": "[1]", "value": "< 9"}]}, {"molecule": "B1", "values": [{"measurement": "binding result", "setting": "LiRecT WT [2]", "value": "binds"}]}, {"molecule": "B2", "values": [{"measurement": "binding result", "setting": "LiRecT WT [3]", "value": "binds"}]}, {"molecule": "B3", "values": [{"measurement": "binding result", "setting": "LiRecT WT [3]", "value": "binds"}]}, {"molecule": "B4", "values": [{"measurement": "binding result", "setting": "LiRecT WT [4]; label: 5'-Cy5", "value": "binds"}]}, {"molecule": "B5", "values": [{"measurement": "binding result", "setting": "λ-Redβ", "value": "binds"}, {"measurement": "binding result", "setting": "LiRecT WT [5]", "value": "binds"}]}, {"molecule": "B6", "values": [{"measurement": "binding result", "setting": "LiRecT WT [6]", "value": "binds"}]}, {"molecule": "B7", "values": [{"measurement": "binding result", "setting": "LiRecT WT [7]", "value": "binds"}]}, {"molecule": "B8", "values": [{"measurement": "binding result", "setting": "LiRecT WT [8]", "value": "binds"}]}, {"molecule": "B9", "values": [{"measurement": "binding result", "setting": "LiRecT WT [9]", "value": "binds"}]}, {"molecule": "B10", "values": [{"measurement": "binding result", "setting": "LiRecT WT [3]", "value": "binds"}]}, {"molecule": "B11", "values": [{"measurement": "binding result", "setting": "LiRecT WT [10]", "value": "binds"}]}, {"molecule": "B12", "values": [{"measurement": "binding result", "setting": "LiRecT WT [4]; label: 5'-Cy3", "value": "binds"}]}]}
